Reference: publication PMC6344896, “HuR biological function involves RRM3-mediated dimerization and RNA binding by all three RRMs”

How the values were obtained:
HuR RRM3 F279A = HuR RRM3 F279A (human, UniProt Q15717 243-326, F279A); assay: ITC; n=0.6; ITC: 50 mM sodium phosphate pH 7.0, 200 mM NaCl, 2 mM beta-mercaptoethanol, 298 K; NMR: 20 mM sodium phosphate pH 7.0, 200 mM NaCl, 5 mM DTT, 1 mM EDTA, 298 K; conditions: protein: recombinant; tags: untagged (His6-GST cleaved)
HuR RRM3 [1] = molecular target: T1, HuR RRM3 (human, UniProt Q15717 243-326); assay: ITC; 400 uM RNA into 20 uM RRM3; n=0.6; ITC: 50 mM sodium phosphate pH 7.0, 200 mM NaCl, 2 mM beta-mercaptoethanol, 298 K; NMR: 20 mM sodium phosphate pH 7.0, 200 mM NaCl, 5 mM DTT, 1 mM EDTA, 298 K; conditions: protein: recombinant; tags: untagged (His6-GST cleaved with TEV)
T1 sequence (Q15717 243-326): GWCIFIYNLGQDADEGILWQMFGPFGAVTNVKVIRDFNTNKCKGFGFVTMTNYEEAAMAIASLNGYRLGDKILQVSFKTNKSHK

HuR RRM3 F247A/Y249A = HuR RRM3 F247A/Y249A (human, UniProt Q15717 243-326, F247A;Y249A); assay: ITC; ITC: 50 mM sodium phosphate pH 7.0, 200 mM NaCl, 2 mM beta-mercaptoethanol, 298 K; NMR: 20 mM sodium phosphate pH 7.0, 200 mM NaCl, 5 mM DTT, 1 mM EDTA, 298 K; conditions: protein: recombinant; tags: untagged (His6-GST cleaved)
HuR RRM3 F247A/Y249A, sequence (Q15717 243-326 F247A/Y249A): as the sequence (Q15717 243-326) above, with F5A, Y7A counted along it

HuR RRM3 [2] = molecular target: T1, HuR RRM3; assay: ITC; n=0.8; ITC: 50 mM sodium phosphate pH 7.0, 200 mM NaCl, 2 mM beta-mercaptoethanol, 298 K; NMR: 20 mM sodium phosphate pH 7.0, 200 mM NaCl, 5 mM DTT, 1 mM EDTA, 298 K; conditions: protein: recombinant; tags: untagged (His6-GST cleaved with TEV)
HuR RRM3 [3] = molecular target: T1, HuR RRM3; assay: ITC; ITC: 50 mM sodium phosphate pH 7.0, 200 mM NaCl, 2 mM beta-mercaptoethanol, 298 K; NMR: 20 mM sodium phosphate pH 7.0, 200 mM NaCl, 5 mM DTT, 1 mM EDTA, 298 K; conditions: protein: recombinant; tags: untagged (His6-GST cleaved with TEV)
HuR F279A = HuR F279A (human, UniProt Q15717 1-326, F279A); assay: ITC; n=1.0; ITC: 50 mM sodium phosphate pH 7.0, 200 mM NaCl, 2 mM beta-mercaptoethanol, 298 K; NMR: 20 mM sodium phosphate pH 7.0, 200 mM NaCl, 5 mM DTT, 1 mM EDTA, 298 K; conditions: protein: recombinant; tags: untagged (tag cleaved)
HuR F279A, sequence (Q15717 whole entry F279A): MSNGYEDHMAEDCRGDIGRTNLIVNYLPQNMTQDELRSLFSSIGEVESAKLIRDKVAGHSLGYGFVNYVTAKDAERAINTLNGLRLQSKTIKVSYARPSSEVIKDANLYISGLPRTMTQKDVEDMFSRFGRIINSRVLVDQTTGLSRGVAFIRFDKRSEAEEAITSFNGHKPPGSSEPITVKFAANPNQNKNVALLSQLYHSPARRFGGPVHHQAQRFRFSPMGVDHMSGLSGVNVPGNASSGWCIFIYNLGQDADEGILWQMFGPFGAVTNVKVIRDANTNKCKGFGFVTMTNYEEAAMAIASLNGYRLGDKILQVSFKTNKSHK

HuR W261E = HuR W261E (human, UniProt Q15717 1-326, W261E); assay: ITC; n=0.9; ITC: 50 mM sodium phosphate pH 7.0, 200 mM NaCl, 2 mM beta-mercaptoethanol, 298 K; NMR: 20 mM sodium phosphate pH 7.0, 200 mM NaCl, 5 mM DTT, 1 mM EDTA, 298 K; conditions: protein: recombinant; tags: untagged (tag cleaved)
HuR W261E, sequence (Q15717 whole entry W261E): as the sequence (Q15717 whole entry F279A) above, with W261E, A279F counted along it

HuR GGS = HuR GGS (human, UniProt Q15717 1-185+=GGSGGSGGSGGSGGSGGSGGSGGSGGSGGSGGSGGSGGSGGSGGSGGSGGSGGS+240-326, internal_change); assay: as above; conditions: protein: recombinant; tags: pETM11 His6, cleaved
HuR GGS, sequence (Q15717 other isoform, or with tags, fused parts or gaps): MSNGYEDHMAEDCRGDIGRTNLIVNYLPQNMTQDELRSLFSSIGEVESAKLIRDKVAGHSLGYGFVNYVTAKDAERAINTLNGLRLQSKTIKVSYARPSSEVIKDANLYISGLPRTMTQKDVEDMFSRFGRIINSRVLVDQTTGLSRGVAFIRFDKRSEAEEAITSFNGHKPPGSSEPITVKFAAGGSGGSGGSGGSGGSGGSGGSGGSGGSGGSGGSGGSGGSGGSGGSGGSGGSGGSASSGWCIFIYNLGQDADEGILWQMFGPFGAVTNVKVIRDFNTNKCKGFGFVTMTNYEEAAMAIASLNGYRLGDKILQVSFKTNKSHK

HuR F287A/F289A = HuR F287A/F289A (human, UniProt Q15717 1-326, F287A;F289A); assay: ITC; n=0.7; ITC: 50 mM sodium phosphate pH 7.0, 200 mM NaCl, 2 mM beta-mercaptoethanol, 298 K; NMR: 20 mM sodium phosphate pH 7.0, 200 mM NaCl, 5 mM DTT, 1 mM EDTA, 298 K; conditions: protein: recombinant; tags: untagged (tag cleaved)
HuR F287A/F289A, sequence (Q15717 whole entry F287A/F289A): as the sequence (Q15717 whole entry F279A) above, with A279F, F287A, F289A counted along it

HuR WT = HuR WT (human, UniProt Q15717 1-326); assay: as above; conditions: protein: recombinant; tags: untagged (His6-MBP cleaved)
HuR WT, sequence (Q15717 whole entry): as the sequence (Q15717 whole entry F279A) above, with A279F counted along it

HuR F247A/Y249A = HuR F247A/Y249A (human, UniProt Q15717 1-326, F247A;Y249A); assay: ITC; n=0.8; ITC: 50 mM sodium phosphate pH 7.0, 200 mM NaCl, 2 mM beta-mercaptoethanol, 298 K; NMR: 20 mM sodium phosphate pH 7.0, 200 mM NaCl, 5 mM DTT, 1 mM EDTA, 298 K; conditions: protein: recombinant; tags: untagged (tag cleaved)
HuR F247A/Y249A, sequence (Q15717 whole entry F247A/Y249A): as the sequence (Q15717 whole entry F279A) above, with F247A, Y249A, A279F counted along it

HuR RRM3 [4] = molecular target: T1, HuR RRM3; assay: ITC; 400 uM RNA into 20 uM RRM3; ITC: 50 mM sodium phosphate pH 7.0, 200 mM NaCl, 2 mM beta-mercaptoethanol, 298 K; NMR: 20 mM sodium phosphate pH 7.0, 200 mM NaCl, 5 mM DTT, 1 mM EDTA, 298 K; conditions: protein: recombinant; tags: untagged (His6-GST cleaved with TEV)
HuR RRM3 [5] = molecular target: T1, HuR RRM3; assay: NMR; 1:0.25 and 1:1.25; ITC: 50 mM sodium phosphate pH 7.0, 200 mM NaCl, 2 mM beta-mercaptoethanol, 298 K; NMR: 20 mM sodium phosphate pH 7.0, 200 mM NaCl, 5 mM DTT, 1 mM EDTA, 298 K; conditions: protein: recombinant; tags: untagged (His6-GST cleaved with TEV)
HuR RRM3 [6] = molecular target: T1, HuR RRM3; assay: NMR; changes comparable with U6; ITC: 50 mM sodium phosphate pH 7.0, 200 mM NaCl, 2 mM beta-mercaptoethanol, 298 K; NMR: 20 mM sodium phosphate pH 7.0, 200 mM NaCl, 5 mM DTT, 1 mM EDTA, 298 K; conditions: protein: recombinant; tags: untagged (His6-GST cleaved with TEV)
HuR RRM3 [7] = molecular target: T1, HuR RRM3; assay: ITC; n=1.1; ITC: 50 mM sodium phosphate pH 7.0, 200 mM NaCl, 2 mM beta-mercaptoethanol, 298 K; NMR: 20 mM sodium phosphate pH 7.0, 200 mM NaCl, 5 mM DTT, 1 mM EDTA, 298 K; conditions: protein: recombinant; tags: untagged (His6-GST cleaved with TEV)

HuR RRM3 F279A, sequence (Q15717 243-326 F279A): as the sequence (Q15717 243-326) above, with F37A counted along it

Binder: UUUUUU (ssRNA) [U6]
- Kd (HuR RRM3 F279A): 44.6 ± 3.5 µM
- Kd (HuR RRM3 [1]): 15.8 ± 1.5 µM
- binding result (HuR RRM3 F247A/Y249A): no binding
- Kd (HuR RRM3 [2]): 19.3 ± 0.3 µM

Binder: UAUUUA (ssRNA) [AU6tnf]
- Kd (HuR RRM3 [3]): 156 ± 32.8 µM

Binder: AUUUUUAUUUUAUUUUU (ssRNA) [AU17]
- Kd (HuR F279A): 0.0288 ± 0.0044 µM
- Kd (HuR W261E): 0.041 ± 0.0048 µM
- Kd (HuR GGS): 0.0336 ± 0.0027 µM
- Kd (HuR F287A/F289A): 0.194 ± 0.0215 µM
- Kd (HuR WT): 0.04 ± 0.0082 µM
- Kd (HuR F247A/Y249A): 0.351 ± 0.0199 µM

Binder: UUUUU (ssRNA) [U5]
- Kd (HuR RRM3 [4]): 34 µM

Binder: GAGCAC (ssRNA) [GC control]
- binding result (HuR RRM3 [5]): no binding

Binder: UUUAUU (ssRNA) [AU6]
- Kd (HuR RRM3 [2]): 47 ± 3.6 µM

Binder: UUUUUUUUU (ssRNA) [U9]
- binding result (HuR RRM3 [6]): binds

Binder: UUUGUU (ssRNA) [GU6]
- Kd (HuR RRM3 [7]): 100 ± 18.2 µM
